Non-standard residues stand in square brackets, D forms with d. Primed or numbered codes have the meaning given here. No end group written: not given here. *: point of attachment. R(dz)″ = photo-arginine carrying a diazirine photo-crosslinker; Biotin = O=C1N[C@H]2[C@H](CS[C@H]2CCCCC(=O)*)N1
Target: PHD domain of UHRF1 (UHRF1PHD)
Experiment: ITC; 25 °C, MicroCal PEAQ-ITC; protein in the cell titrated with 19 injections of peptide

Kd: 10.6 µM
Binder: A[R(dz)″]TKQTARKSTGGK(Biotin)A-NH2 [H3K4‐R2dz (probe 1)]
